T1: B7H3 (CD276) (human, UniProt Q5ZPR3 29-534)
T1 construct: whole, on cells
T1 sequence (looked up): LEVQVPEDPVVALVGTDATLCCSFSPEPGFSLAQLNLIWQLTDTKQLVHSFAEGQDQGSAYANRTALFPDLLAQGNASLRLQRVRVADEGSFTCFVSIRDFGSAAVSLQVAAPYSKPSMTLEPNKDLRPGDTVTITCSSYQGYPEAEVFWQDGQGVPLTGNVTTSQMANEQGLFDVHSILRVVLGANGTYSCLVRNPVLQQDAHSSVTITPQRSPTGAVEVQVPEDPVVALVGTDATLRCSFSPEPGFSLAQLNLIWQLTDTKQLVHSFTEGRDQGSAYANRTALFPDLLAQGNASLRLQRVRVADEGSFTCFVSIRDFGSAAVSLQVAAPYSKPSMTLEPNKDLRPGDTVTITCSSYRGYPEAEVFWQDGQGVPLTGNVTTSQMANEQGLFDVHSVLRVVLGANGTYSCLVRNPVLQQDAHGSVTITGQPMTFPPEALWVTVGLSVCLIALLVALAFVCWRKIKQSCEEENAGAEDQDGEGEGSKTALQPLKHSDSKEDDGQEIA


Assays:
[1] = molecular target: T2, CD3 on the surface of primary T cells (human, UniProt P07766 23-207); experiment: flow cytometry on isolated primary T cells, anti-human IgG Fc secondary
T2 construct: whole, on cells; CD3 is a multimeric complex (ε, γ, δ, ζ chains) with the TCR; In the reporter assays CD3 stood on Jurkat cells; also called CD3ε
Procedure: (§1) Binding of exemplary multispecific polypeptide constructs of the disclosure containing an antigen-binding domain directed against Folate Receptor Alpha (FRα) to CD3 on the surface of primary T cells and to FRα expressing cells (Ovcar-5) was assessed by flow cytometry. The tumor antigen binding domains of the tested constructs bind the Folate Receptor Alpha (FRα), which is not expressed on the primary T cells. The tested constructs included cx1356 and cx681, containing a non-cleavable linker of 3 amino acids in cx1356 or a non-cleavable linker of 18 amino acids in cx681 (see FIG. 2B and Table E1.1).
(§2) For the studies described in FIGS. 5A and 5B, 100 nM of each construct, cx1356 or cx681 was used and assessed for binding to either the Ovcar-5 cells or primary T-cells. An anti-CD3 antibody was included as a control. A titration of the constrained CD3 engaging constructs on either FRα expressing cells (Ovcar-5; FIG. 5C) or isolated primary T-cells (FRα negative; FIG. 5D), was conducted to assess binding. Bound constructs were detected using fluorophore-conjugated anti-human IgG Fc secondary antibody.

[2] = molecular target: T3, Folate Receptor Alpha (FRα) (UniProt P15328 25-234, limits assumed); experiment: flow cytometry on Ovcar-5 cells, anti-human IgG Fc secondary
T3 construct: whole, on cells; also called FR-Alpha
Procedure: as §1, §2

[3] = molecular target: T2, CD3 on the surface of primary T cells; experiment: flow cytometry on isolated primary human T cells
Procedure: (§3) Binding of exemplary multispecific constructs containing an antigen-binding domain directed against B7H3 were assessed for binding to B7H3 positive A375 tumor cells or primary T-cells. The constructs were generated containing antigen-binding domain(s) that were either sdAbs or a FABs, and that were positioned either only N-terminal to the Fc or both N-terminal to the Fc and C-terminal to the anti-CD3 binding domain (see FIGS. 3A and 3C and Table E1.1). Among the various formats of constructs tested included: sdAb-Fc-dsFV-sdAb (cx3072, cx5952) sdAb-Fc-FV (cx6079), sdAb-Fc-dsFV (cs6080, cx6081), MAB-FV (cx5067) and MAB-dsFV (cx6083, cx6084), where the FV represents the anti-CD3 binding domain composed of VH and VL domain pairs and “ds” notes disulfide stabilized via an engineered interdomain disulfide bond.
(§4) Binding was assessed as described above via flow cytometry using a fluorophore-conjugated anti-human Fc secondary antibody. cx3072 bound to A375 cells with high affinity (FIG. 6A) but not to isolated T-cells (FIG. 6B). […] The B7H3-targeting sdAb containing constructs (cx5952, cx6079, cx6080, and cx6081) bound to B7H3 positive cells with similar affinities (depicted in FIG. 6E), with cx5952 displaying higher maximal binding. cx6079, cx6080 and cx6081 contain two identical B7H3-targeting sdAbs, whereas cx5952, and cx3072 contain two distinct B7H3-targeting sdAb that bind different epitopes. The MAB-FV, cx5067, contains two identical B7H3-targeting FAB domains.

B7H3 (CD276) [4] = molecular target: T1, B7H3 (CD276); experiment: flow cytometry on A375 cells
Procedure: as §3
Binding was assessed as described above via flow cytometry using a fluorophore-conjugated anti-human Fc secondary antibody. cx3072 bound to A375 cells with high affinity (FIG. 6A) but not to isolated T-cells (FIG. 6B). […]

B7H3 (CD276) [5] = molecular target: T1, B7H3 (CD276); experiment: flow cytometry on A375 cells, anti-human Fc secondary
Procedure: as §3, §4

T2 sequence (P07766 23-207): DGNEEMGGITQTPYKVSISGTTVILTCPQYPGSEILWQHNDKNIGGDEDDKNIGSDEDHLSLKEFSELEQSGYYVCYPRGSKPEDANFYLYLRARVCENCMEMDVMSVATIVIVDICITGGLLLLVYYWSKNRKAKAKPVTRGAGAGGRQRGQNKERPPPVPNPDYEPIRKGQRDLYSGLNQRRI
T3 sequence (P15328 25-234 limits assumed): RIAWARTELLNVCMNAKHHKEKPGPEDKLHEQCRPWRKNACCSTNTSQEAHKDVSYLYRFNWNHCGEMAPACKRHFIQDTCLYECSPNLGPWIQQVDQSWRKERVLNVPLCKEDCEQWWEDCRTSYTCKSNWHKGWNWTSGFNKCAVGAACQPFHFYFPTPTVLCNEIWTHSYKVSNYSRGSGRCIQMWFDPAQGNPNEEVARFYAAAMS

Binder	binding result [1]	binding result [2]	binding result [3]	binding result (B7H3 (CD276) [4])	binding result (B7H3 (CD276) [5])
cx681 (bispecific antibody, Heterodimer of chain 1 and chain 2; anti-CD3 Fv disulfide-stabilized (VH G44C / VL G100C); the shortest entry is written; also called FRα-targeting constrained CD3 engaging construct; gs18 linker) chain 1: not shown chain 2: QLQLQESGGGLVQPGGSLRLSCAASGFTLDNYAIGWFRQAPGKEREGVSCISSSDGSTYYADSVKGRFTISRNNAKGTVYLLMNSLKPEDTAVYYCATELVPACTYSNGRGPLDGMDYWGKGTQVTVKPPGGGGDKTHTCPPCPAPELLGGPSVFLFPPKPKDTLMRSRTPEVTCVVVDVSHEDPEVKFNWYVDGVEVHNAKTKPREEQYNSTYRVVSVLTVLHQDWLNGKEYKCKVSNKALPAPIEKTISKAKGQPREPQVCTLPPSRDELTKNQVSLSCAVKGFYPSDIAVEWESNGQPENNYKTTPPVLDSDGSFFLVSKLTVDKSRWQQGNVFSCSVMHEALHNHYTQKSLSLSPGGSGGGGSGGGGSGGGGSQAVVTQEPSLTVSPGGTVTLTCGSSTGAVTTSNYANWVQQKPGKSPRGLIGGTNKRAPGVPARFSGSLLGGKAALTISGAQPEDEADYYCALWYSNHWVFGCGTKLTVLGGGGEVQLLESGGGEVQPGGSLRLSCAASGSIFSIDATAWYRQAPGKQRELVAIITSSGSTNYPESVKGRFTISRDNAKNTVYLQMSSLRAEDTAVYYCNAITRYGGSTYDFWGQGTLVTVKP	no binding (tested: 100 nM)	binds			
cx1356 (bispecific antibody, Heterodimer of chain 1 and chain 2; anti-CD3 Fv disulfide-stabilized (VH G44C / VL G100C); the shortest entry is written; also called FRα-targeting constrained CD3 engaging construct; gs3 linker) chain 1: not shown chain 2: QLQLQESGGGLVQPGGSLRLSCAASGFTLDNYAIGWFRQAPGKEREGVSCISSSDGSTYYADSVKGRFTISRNNAKGTVYLLMNSLKPEDTAVYYCATELVPACTYSNGRGPLDGMDYWGKGTQVTVKPPGGGGDKTHTCPPCPAPELLGGPSVFLFPPKPKDTLMRSRTPEVTCVVVDVSHEDPEVKFNWYVDGVEVHNAKTKPREEQYNSTYRVVSVLTVLHQDWLNGKEYKCKVSNKALPAPIEKTISKAKGQPREPQVCTLPPSRDELTKNQVSLSCAVKGFYPSDIAVEWESNGQPENNYKTTPPVLDSDGSFFLVSKLTVDKSRWQQGNVFSCSVMHEALHNHYTQKSLSLSPGGSQAVVTQEPSLTVSPGGTVTLTCGSSTGAVTTSNYANWVQQKPGKSPRGLIGGTNKRAPGVPARFSGSLLGGKAALTISGAQPEDEADYYCALWYSNHWVFGCGTKLTVLGGGGEVQLLESGGGEVQPGGSLRLSCAASGSIFSIDATAWYRQAPGKQRELVAIITSSGSTNYPESVKGRFTISRDNAKNTVYLQMSSLRAEDTAVYYCNAITRYGGSTYDFWGQGTLVTVKP	no binding (tested: 100 nM)	binds			
cx6080 (bispecific antibody, Heterodimer of chain 1 and chain 2; anti-CD3 Fv disulfide-stabilized (VH G44C / VL G100C); two identical B7H3 sdAbs, both N-terminal to the Fc; also called cs6080; B7H3-targeting constrained CD3 engaging construct) chain 1: EVQLVESGGGEVQPGGSLRLSCAASGFSFSSNVMMWVRQAPGKGLEWVSTIYSSGTGTFYAESVKGRFTISRDNAKNTLYLQMSSLRPEDTAVYYCATSGPVRGWGPRSQGTLVTVKPPGGGGDKTHTCPPCPAPPVAGPSVFLFPPKPKDTLMISRTPEVTCVVVDVKHEDPEVKFNWYVDGVEVHNAKTKPREEEYNSTYRVVSVLTVLHQDWLNGKEYKCKVSNKALPAPIEKTISKAKGQPREPQVYTLPPSREEMTKNQVSLTCDVSGFYPSDIAVEWESDGQPENNYKTTPPVLDSDGSFFLYSKLTVDKSRWEQGDVFSCSVMHEALHNHYTQKSLSLSPGKGGGGSGGGGSGGGGSEVQLVESGGGLVQPGGSLRLSCAASGFTFSTYAMNWVRQAPGKCLEWVGRIRSKYNNYATYYADSVKGRFTISRDDSKNTLYLQMNSLRAEDTAVYYCVRHGNFGDSYVSWFAYWGQGTLVTVSS chain 2: EVQLVESGGGEVQPGGSLRLSCAASGFSFSSNVMMWVRQAPGKGLEWVSTIYSSGTGTFYAESVKGRFTISRDNAKNTLYLQMSSLRPEDTAVYYCATSGPVRGWGPRSQGTLVTVKPPGGGGDKTHTCPPCPAPPVAGPSVFLFPPKPKDTLMISRTPEVTCVVVDVKHEDPEVKFNWYVDGVEVHNAKTKPREEQYNSTYRVVSVLTVLHQDWLNGKEYKCKVSNKALPAPIEKTISKAKGQPREPQVYTLPPSREQMTKNQVKLTCLVKGFYPSDIAVEWESNGQPENNYKTTPPVLDSDGSFFLYSKLTVDKSRWQQGNVFSCSVMHEALHNHYTQKSLSLSPGKGGGGSGGGGSGGGGSQAVVTQEPSLTVSPGGTVTLTCGSSTGAVTTSNYANWVQQKPGKSPRGLIGGTNKRAPGVPARFSGSLLGGKAALTISGAQPEDEADYYCALWYSNHWVFGCGTKLTVL			no binding	binds	
cx6084 (bispecific antibody, human IgG1, kappa, Three polypeptides; B7H3 Fab on both Fc chains; anti-CD3 Fv disulfide-stabilized (VH G44C / VL G100C); also called MAB-dsFV; B7H3-targeted constrained CD3 engaging construct (Fab format)) chain 1: EVQLVESGGGLVQPGGSLRLSCAASGFTFSSFGMHWVRQAPGKGLEWVAYISSDSSAIYYADTVKGRFTISRDNAKNSLYLQMNSLRDEDTAVYYCGRGRENIYYGSRLDYWGQGTTVTVSSASTKGPSVFPLAPSSKSTSGGTAALGCLVKDYFPEPVTVSWNSGALTSGVHTFPAVLQSSGLYSLSSVVTVPSSSLGTQTYICNVNHKPSNTKVDKKVEPKSCDKTHTCPPCPAPPVAGPSVFLFPPKPKDTLMISRTPEVTCVVVDVKHEDPEVKFNWYVDGVEVHNAKTKPREEEYNSTYRVVSVLTVLHQDWLNGKEYKCKVSNKALPAPIEKTISKAKGQPREPQVYTLPPSREEMTKNQVSLTCDVSGFYPSDIAVEWESDGQPENNYKTTPPVLDSDGSFFLYSKLTVDKSRWEQGDVFSCSVMHEALHNHYTQKSLSLSPGKGGGGSGGGGSGGGGSEVQLVESGGGLVQPGGSLRLSCAASGFTFNTYAMNWVRQAPGKCLEWVARIRSKYNNYATYYADSVKGRFTISRDDAKNTLYLQMSSLRAEDTAVYYCVRHGNFGNSYVSWFAYWGQGTLVTVKP chain 2: EVQLVESGGGLVQPGGSLRLSCAASGFTFSSFGMHWVRQAPGKGLEWVAYISSDSSAIYYADTVKGRFTISRDNAKNSLYLQMNSLRDEDTAVYYCGRGRENIYYGSRLDYWGQGTTVTVSSASTKGPSVFPLAPSSKSTSGGTAALGCLVKDYFPEPVTVSWNSGALTSGVHTFPAVLQSSGLYSLSSVVTVPSSSLGTQTYICNVNHKPSNTKVDKKVEPKSCDKTHTCPPCPAPPVAGPSVFLFPPKPKDTLMISRTPEVTCVVVDVKHEDPEVKFNWYVDGVEVHNAKTKPREEQYNSTYRVVSVLTVLHQDWLNGKEYKCKVSNKALPAPIEKTISKAKGQPREPQVYTLPPSREQMTKNQVKLTCLVKGFYPSDIAVEWESNGQPENNYKTTPPVLDSDGSFFLYSKLTVDKSRWQQGNVFSCSVMHEALHNHYTQKSLSLSPGKGGGGSGGGGSGGGGSQAVVTQEPSLTVSPGGTVTLTCGSSTGAVTTSNYANWVQQKPGQAFRGLIGGTNKRAPGVPARFSGSLLGGKAALTISGAQPEDEADYYCALWYSNHWVFGCGTKLEIK light: DIQLTQSPSFLSASVGDRVTITCKASQNVDTNVAWYQQKPGKAPKALIYSASYRYSGVPSRFSGSGSGTDFTLTISSLQPEDFATYYCQQYNNYPFTFGQGTKLEIKRTVAAPSVFIFPPSDEQLKSGTASVVCLLNNFYPREAKVQWKVDNALQSGNSQESVTEQDSKDSTYSLSSTLTLSKADYEKHKVYACEVTHQGLSSPVTKSFNRGEC			no binding		binds
